Experimental findings from patent publication US20240116985A1 (published 2024) are described below.

The target of test [1] is T1, Bcat-Halo (UniProt P35222 1-781).
T1 sequence (looked up): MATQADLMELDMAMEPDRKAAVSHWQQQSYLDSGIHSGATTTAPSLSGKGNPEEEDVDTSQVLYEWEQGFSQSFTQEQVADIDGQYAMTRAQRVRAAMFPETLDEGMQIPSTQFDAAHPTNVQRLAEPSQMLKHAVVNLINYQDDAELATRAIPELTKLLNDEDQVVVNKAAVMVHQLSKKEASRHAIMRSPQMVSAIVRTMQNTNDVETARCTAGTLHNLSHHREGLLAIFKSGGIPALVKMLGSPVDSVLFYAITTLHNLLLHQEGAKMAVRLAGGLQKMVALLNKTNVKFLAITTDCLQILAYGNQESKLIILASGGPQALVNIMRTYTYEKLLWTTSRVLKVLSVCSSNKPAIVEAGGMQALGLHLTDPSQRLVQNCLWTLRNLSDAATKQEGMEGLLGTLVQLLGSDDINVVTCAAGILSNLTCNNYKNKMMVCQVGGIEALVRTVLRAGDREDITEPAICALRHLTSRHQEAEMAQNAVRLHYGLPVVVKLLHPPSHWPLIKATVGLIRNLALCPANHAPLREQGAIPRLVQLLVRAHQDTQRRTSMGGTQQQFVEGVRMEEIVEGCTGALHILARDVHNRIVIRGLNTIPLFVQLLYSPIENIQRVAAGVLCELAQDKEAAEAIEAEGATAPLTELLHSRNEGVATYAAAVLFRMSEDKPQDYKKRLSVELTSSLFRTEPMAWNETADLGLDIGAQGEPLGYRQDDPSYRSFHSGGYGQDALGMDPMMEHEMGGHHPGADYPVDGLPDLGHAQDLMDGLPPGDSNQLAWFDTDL
The test is described as follows: cell-based or functional assay.

Test [2] has as its target T2, full-length beta-Catenin (Uniprot ID P35222) (Homo sapiens (Human), UniProt P35222 1-781).
T2 construct: The assay text says 'full-length beta-Catenin (Uniprot ID P35222)'; also called bCat; B-Catenin
T2 sequence: T1 sequence (looked up)
Description: fluorescence polarization competition; full-length beta-catenin, competitor 5FAM-TCF4(10-53) probe. How it is done: The plate was incubated protected from light for 60 minutes at 20° C. prior to read. Reads were performed on a CLARIOstar plate reader (BMG Labtech) in duplicate, and data were fitted to a 1:1 binding model with hill slope using an in-house script. All provided concentrations are final concentrations.

Starred links: 1 amine or outer side, 2 acyl side, 3 side chain; linkers in the order of their positions; H or OH if unused. Positions of bridges follow the written chain, without caps; N, C: chain ends. Non-standard residues stand in square brackets, D forms with d. Primed or numbered codes have the meaning given here. *: point of attachment. PyrS2″ = (S)-3-amino-1-((pent-4-en-1-yloxy)carbonyl)pyrrolidine-3-carboxylic acid (stapling residue), C=CCCCOC(=O)N1CC[C@@](N[*:1])(C(=O)[*:2])C1; B5(4) = 2,2-bis(4-pentenyl)glycine = 2-amino-2-(pent-4-en-1-yl)hept-6-enoic acid (stitching residue), C=CCCCC(CCCC=C)(N[*:1])C(=O)[*:2]; B5 = 2-amino-2-(pent-4-en-1-yl)hept-6-enoic acid, C=CCCCC(CCCC=C)(N[*:1])C(=O)[*:2]; Phe(3-COOH) = N[C@@H](Cc1cccc(C(=O)O)c1)C(=O)O; 2F3MeF = Cc1cccc(C[C@H](N[*:1])C(=O)[*:2])c1F; Bta = N[C@@H](Cc1csc2ccccc12)C(=O)O; Lys(iPr) = CC(C)NCCCC[C@H](N)C(=O)O; hTyr = N[C@@H](CCc1ccc(O)cc1)C(=O)O; αAllylPro = C=CC[C@@]1(C(=O)O)CCCN1; Azidoacetyl = [N-]=[N+]=NCC(=O)*; tBuAla = CC(C)(C)C[C@H](N)C(=O)O; 3Thi = N[C@@H](Cc1ccsc1)C(=O)O; Cha = N[C@@H](CC1CCCCC1)C(=O)O; S8 = C=CCCCCCC[C@](C)(N)C(=O)O; Nicotinoyl = O=C(c1cccnc1)*; Picolinoyl = O=C(c1ccccn1)*; PyrS2(4) = not defined here; hSer = N[C@@H](CCO)C(=O)O; PhAc = O=C(Cc1ccccc1)* A value given as a limit tells only on which side of the number the result lay.

For Ac-[αAllylPro]D[tBuAla][B5(4)]D[Phe(3-COOH)]A[dA]FL[PyrS2″][3Thi][Bta][dA]-NH2 (staple 1-4, 4-11) [I-2100], the “NanoBRET Abs IC50” value in test [1] is more than 20000 nM.

B1: I-600 (peptide)
peptide: PhAc-[αAllylPro]DI[B5]DEAAFQ[S8]F[Bta]Q-NH2
modifications: staple 1-4, 4-11
notes: Stapled peptide composition; N-terminal cap Bnc
As to B1, in test [2], it took 796 nM to reach a half-maximal effect (EC50).

B2: I-2120 (peptide)
peptide: Ac-[αAllylPro]D[tBuAla][B5(4)]DHAA[Phe(3-COOH)][hSer][PyrS2(4)][3Thi][Bta]Q-NH2
modifications: staple 1-4, 4-11; reading uncertain; also: earlier eluting HPLC isomer composition, printed as Ac-PL3-Asp-Npg-B5-Asp-His-Ala-Ala-3COOHF-Hse-PyrS2-3Thi-BztA-Gln-NH2
Take B2: the “NanoBRET Abs IC50” value in test [1] worked out at 37200 nM.

With Ac-[αAllylPro]D[tBuAla][B5(4)]DHAA[Phe(3-COOH)][hSer][PyrS2″][3Thi][Bta]Q-NH2 (staple 1-4, 4-11; also: later eluting HPLC isomer composition) [I-2121], in test [1], the “NanoBRET Abs IC50” value is more than 20000 nM.

B3: I-598 (peptide)
peptide: Nicotinoyl-[αAllylPro]DI[B5]DEAAFQ[S8]F[Bta]Q-NH2
modifications: staple 1-4, 4-11
notes: Stapled peptide composition; N-terminal cap Nic
B3: the EC50 – broadly, the concentration needed to bring the measured effect to its halfway point – in test [2] came to 845 nM.

B4: I-591 (peptide)
peptide: Ac-[αAllylPro]DI[B5(4)]DEK(Azidoacetyl)AFQ[S8]F[Bta]Q-NH2
modifications: staple 1-4, 4-11; not fully specified; printed as Ac-PL3-Asp-Ile-B5-Asp-Glu-[AzAc]Lys-Ala-Phe-Gln-S8-Phe-BztA-Gln-NH2
notes: Stapled peptide composition
In test [2], B4 showed an EC50 of 64 nM.

B5: I-589 (peptide)
peptide: XDKXDEAAFQXFXQ
modifications: not fully specified; Ac-PL3-Asp-[AzAc]Lys-B5-Asp-Glu-Ala-Ala-Phe-Gln-S8-Phe-BztA-Gln-NH2; stapled PL3(1)-B5(4) and B5(4)-S8(11) by olefin metathesis
notes: Stapled peptide composition; same description as I-590, earlier eluting HPLC peak (staple isomer)
The molecule B5 yielded an EC50 in test [2] of 48 nM.

Ac-[αAllylPro]DI[B5]DEAK(Azidoacetyl)FQ[S8]F[Bta]Q-NH2 (staple 1-4, 4-11, Stapled peptide composition) [I-593] came in with an EC50 in test [2] of 68 nM.

In test [2], Ac-[αAllylPro]DI[B5]DQAAFQ[S8]F[Bta]Q-NH2 (staple 1-4, 4-11, Stapled peptide composition) [I-603] came in with an EC50 of 392 nM.

Take Ac-[αAllylPro]DI[B5]DEAAFK(Azidoacetyl)[S8]F[Bta]Q-NH2 (staple 1-4, 4-11, Stapled peptide composition) [I-594]: the EC50 in test [2] stood at 87 nM.

For Ac-[αAllylPro]DI[B5]DEK(Azidoacetyl)AFQ[S8]F[Bta]Q-NH2 (staple 1-4, 4-11; not fully specified, Stapled peptide composition) [I-592], in test [2], the midpoint of the response, the EC50, lay at 24 nM.

Consider Ac-[αAllylPro]DK(Azidoacetyl)[B5(4)]DEAAFQ[S8]F[Bta]Q-NH2 (staple 1-4, 4-11; not fully specified, Stapled peptide composition) [I-590], for which a half-maximal effect in test [2] (EC50) was put at 45 nM.

Consider Ac-[αAllylPro]DI[B5]DEAAFQ[S8]F[Bta]K(Azidoacetyl)-NH2 (staple 1-4, 4-11, Stapled peptide composition) [I-595], for which the EC50 in test [2] came out at 57 nM.

With Ac-[αAllylPro]N[Cha][B5(4)]DQ[Lys(iPr)]AFN[PyrS2″]F[Bta]K-NH2 (staple 1-4, 4-11) [I-2110], the “NanoBRET Abs IC50” value in test [1] is more than 20000 nM.

Turning to Ac-[αAllylPro]D[tBuAla][B5(4)]D[hTyr]AA[Phe(3-COOH)][hSer][PyrS2″][3Thi][Bta]Q-NH2 (staple 1-4, 4-11; also: later eluting HPLC isomer composition) [I-2117], the “NanoBRET Abs IC50” value in test [1] is more than 20000 nM.

For the molecule Ac-[αAllylPro]D[tBuAla][B5(4)]D[Phe(3-COOH)]A[dA]FL[PyrS2″][3Thi][Bta]A-NH2 (staple 1-4, 4-11; also: later-eluting HPLC isomer composition) [I-2097], the “NanoBRET Abs IC50” value in test [1] is 22300 nM.

For Ac-[αAllylPro]D[tBuAla][B5(4)]D[Phe(3-COOH)]A[dA]FL[PyrS2″][3Thi][Bta]A-NH2 (staple 1-4, 4-11; also: earlier-eluting HPLC isomer composition) [I-2096], the “NanoBRET Abs IC50” value in test [1] was more than 20000 nM.

Consider Ac-[αAllylPro]N[Cha][B5(4)]DQ[Lys(iPr)]AFN[PyrS2″]F[Bta]N-NH2 (staple 1-4, 4-11) [I-2111], for which the “NanoBRET Abs IC50” value in test [1] was more than 20000 nM.

B6: I-602 (peptide)
peptide: XDIXDEAAFQXFXQ
modifications: 2PyPrpc-PL3-Asp-Ile-B5-Asp-Glu-Ala-Ala-Phe-Gln-S8-Phe-BztA-Gln-NH2; stapled PL3(1)-B5(4) and B5(4)-S8(11) by olefin metathesis
notes: Stapled peptide composition; N-terminal cap 2PyPrpc
In turn, B6 gave an EC50 in test [2] of 3150 nM.

For the molecule Ac-[αAllylPro]D[tBuAla][B5(4)]D[Phe(3-COOH)]A[dA]FL[PyrS2″][2F3MeF][Bta]A-NH2 (staple 1-4, 4-11; also: earlier-eluting HPLC isomer composition) [I-2098], in test [1], the “NanoBRET Abs IC50” value is more than 20000 nM.

Take Ac-[αAllylPro]D[tBuAla][B5(4)]D[hTyr]AA[Phe(3-COOH)][hSer][PyrS2″][3Thi][Bta]Q-NH2 (staple 1-4, 4-11; also: earlier eluting HPLC isomer composition) [I-2116]: the “NanoBRET Abs IC50” value in test [1] was 33400 nM.

Ac-[αAllylPro]D[tBuAla][B5(4)]DHAA[Phe(3-COOH)]N[PyrS2″][3Thi][Bta]Q-NH2 (staple 1-4, 4-11; also: earlier eluting HPLC isomer composition) [I-2118]: the “NanoBRET Abs IC50” value in test [1] was more than 20000 nM.

B7: I-599 (peptide)
peptide: Picolinoyl-[αAllylPro]DI[B5]DEAAFQ[S8]F[Bta]Q-NH2
modifications: staple 1-4, 4-11
notes: Stapled peptide composition; N-terminal cap Pic
B7 came in with an EC50 in test [2] of 138 nM.

B8: I-601 (peptide)
peptide: XDIXDEAAFQXFXQ
modifications: Bnc-PL3-Asp-Ile-B5-Asp-Glu-Ala-Ala-Phe-Gln-S8-Phe-BztA-Gln-NH2; stapled PL3(1)-B5(4) and B5(4)-S8(11) by olefin metathesis
notes: Stapled peptide composition; N-terminal cap Bnc; same description as I-600, later eluting HPLC peak (staple isomer)
In turn, B8 yielded an EC50 in test [2] of 419 nM.

B9: I-596 (peptide)
peptide: XDIXDEAAFQXFXQK
modifications: not fully specified; Ac-PL3-Asp-Ile-B5-Asp-Glu-Ala-Ala-Phe-Gln-S8-Phe-BztA-Gln-[AzAc]Lys-NH2; stapled PL3(1)-B5(4) and B5(4)-S8(11) by olefin metathesis
notes: Stapled peptide composition
B9: a half-maximal effect in test [2] (EC50) was put at 112 nM.

Take Ac-[αAllylPro]N[Cha][B5(4)]DQ[Lys(iPr)]AFN[PyrS2″]F[Bta]H-NH2 (staple 1-4, 4-11) [I-2109]: in test [1], the “NanoBRET Abs IC50” value is more than 20000 nM.

Take Ac-[αAllylPro]D[tBuAla][B5(4)]D[hTyr]AA[Phe(3-COOH)]N[PyrS2″][3Thi][Bta]Q-NH2 (staple 1-4, 4-11; also: later eluting HPLC isomer composition) [I-2115]: the “NanoBRET Abs IC50” value in test [1] was more than 20000 nM.

B10: I-597 (peptide)
peptide: Ac-[αAllylPro]DI[B5]DEAAFQ[S8]F[Bta]QK(Azidoacetyl)-NH2
modifications: staple 1-4, 4-11; not fully specified
notes: Stapled peptide composition; same description as I-596, later eluting HPLC peak (staple isomer)
In test [2], B10 registered an EC50 of 76 nM.

As for Ac-[αAllylPro]D[tBuAla][B5(4)]DHAA[Phe(3-COOH)]N[PyrS2″][3Thi][Bta]Q-NH2 (staple 1-4, 4-11; also: later eluting HPLC isomer composition) [I-2119], the “NanoBRET Abs IC50” value in test [1] was more than 20000 nM.

Regarding Ac-[αAllylPro]D[tBuAla][B5(4)]D[hTyr]AA[Phe(3-COOH)]N[PyrS2″][3Thi][Bta]Q-NH2 (staple 1-4, 4-11; also: earlier eluting HPLC isomer composition) [I-2114], the “NanoBRET Abs IC50” value in test [1] is more than 20000 nM.

As for Ac-[αAllylPro]N[Cha][B5(4)]DQ[Lys(iPr)]AF[Lys(iPr)][PyrS2″]F[Bta][hSer]-NH2 (staple 1-4, 4-11) [I-2102], the “NanoBRET Abs IC50” value in test [1] is more than 20000 nM.
